Where a chain is given by its changes, count along the chain named. Names and notes keep the numbering of the source.
B1: chimera A-E57K_R58D-Fc (Eg1S LALAGANA) (Fc fusion)
chain: ETFPPKYLHYDEETSHQLLCDKCPPGTYLKQHCTAKWKTVCAPCPPRHYTQFWNYLKDCRYCNVLCGEREEEARACHATHNRACRCRTGFFAHAGFCLEHASCPPGAGVIAPGTPSQNTQCQPCPDGFFSNETSSKAPCRKHTNCSVFGLLLTQKGNATHDNICSGNSESTQKEPKSSDKTHTCPPCPAPEAAGAPSVFLFPPKPKDTLMISRTPEVTCVVVDVSHEDPEVKFNWYVDGVEVHNAKTKPREEQYNSTYRVVSVLTVLHQDWLNGKEYKCKVSNKALPAPIEKTISKAKGQPREPQVYTLPPSRDELTKNQVSLTCLVKGFYPSDIAVEWESNGQPENNYKTTPPVLDSDGSFFLYSKLTVDKSRWQQGNVFSCSVMHEALHAHYTQKSLSLSPGK
B2: chimera A-E57K-Fc (Eg1S YTE) (Fc fusion)
chain: B1 chain with D58R, A192L, A193L, A195G, M210Y, S212T, T214E, A392N
B3: chimera A-E57V-Fc (Eg1S YTE) (Fc fusion)
chain: B1 chain with K57V, D58R, A192L, A193L, A195G, M210Y, S212T, T214E, A392N
B4: chimera A-E57K-Fc (Eg1S LALAGANA) (Fc fusion)
chain: B1 chain with D58R
B5: chimera A-E57R-Fc (Eg1S YTE) (Fc fusion)
chain: B1 chain with K57R, D58R, A192L, A193L, A195G, M210Y, S212T, T214E, A392N
B6: chimera A-E57R-Fc (Eg1S LALAGANA) (Fc fusion)
chain: B1 chain with K57R, D58R
B7: chimera A-E57V-Fc (Eg1S LALAGANA) (Fc fusion)
chain: B1 chain with K57V, D58R
B8: chimera A-E57K_R58E-Fc (Eg1S LALAGANA) (Fc fusion)
chain: B1 chain with D58E
B9: chimera A-E57K_R58E-Fc (Eg1S YTE) (Fc fusion)
chain: B1 chain with D58E, A192L, A193L, A195G, M210Y, S212T, T214E, A392N
notes: also called 45-18-Fc (Eg1S YTE)
B10: chimera A-E57K_R58D-Fc (Eg1S YTE) (Fc fusion)
chain: B1 chain with A192L, A193L, A195G, M210Y, S212T, T214E, A392N
notes: also called 45-10-Fc (Eg1S YTE)

biological target: T1, membrane-bound human FasL (Met and FLAG tag at the N-terminus) on CHO-K1 cells (human, UniProt P48023 2-281); experiment: flow cytometry on expressing cells
T1 construct: also called FasL/CHO
T1 sequence: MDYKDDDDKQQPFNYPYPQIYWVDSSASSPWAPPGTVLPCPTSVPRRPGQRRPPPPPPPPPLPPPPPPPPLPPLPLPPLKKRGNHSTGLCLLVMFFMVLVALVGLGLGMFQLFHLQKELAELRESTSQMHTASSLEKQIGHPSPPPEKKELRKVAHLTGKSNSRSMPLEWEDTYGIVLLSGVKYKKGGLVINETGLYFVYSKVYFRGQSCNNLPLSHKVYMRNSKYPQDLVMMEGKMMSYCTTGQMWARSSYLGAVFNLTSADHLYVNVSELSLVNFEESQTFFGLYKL
Method in brief: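 Binding was measured by flow cytometry on HEK293 cells forced to express membrane-bound LIGHT and on cell lines expressing N-terminally Met/FLAG-tagged TL1A or FasL from a CMV-promoter pClpuro vector. Cells at 1×10⁵ cells/well received 1 or 10 μg/mL protein on ice for 1 hour. After washing, cells were stained on ice for 1 hour with LIVE/DEAD Fixable Aqua and R-phycoerythrin goat F(ab′)₂ anti-human IgG (10 ng/mL, 0.1 or 1 μg/mL). Fluorescence was read on a FACS Fortessa.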

Binding result, binds:
B1
B2
B3
B4
B5
B6
B7
B8
B9
B10
